First the molecules themselves.
T1: chemokine receptor 1 (CCR1) (UniProt P56482 1-355)
T1 chain: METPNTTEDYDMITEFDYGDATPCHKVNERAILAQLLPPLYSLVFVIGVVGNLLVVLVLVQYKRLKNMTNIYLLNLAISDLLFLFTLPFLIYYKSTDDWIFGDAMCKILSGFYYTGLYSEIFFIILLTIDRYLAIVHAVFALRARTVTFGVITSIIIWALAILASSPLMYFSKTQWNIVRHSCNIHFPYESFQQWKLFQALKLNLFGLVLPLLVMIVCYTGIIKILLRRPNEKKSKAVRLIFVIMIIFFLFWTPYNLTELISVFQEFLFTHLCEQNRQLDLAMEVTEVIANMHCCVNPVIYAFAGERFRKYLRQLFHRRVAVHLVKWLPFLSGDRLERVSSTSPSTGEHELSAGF

B1: HCC-1[11-74] (ligand)
chain: YHPSECCFTYTTYKIPRQRIMDYYETNSQCSKPGIVFITKRGHSVCTNPSDKWVQDYIKDMKEN
B2: NNY-HCC-1[10-74] (ligand)
chain: Nonanoyl-PYHPSECCFTYTTYKIPRQRIMDYYETNSQCSKPGIVFITKRGHSVCTNPSDKWVQDYIKDMKEN
modifications: ends and bridges not checked
B3: PHC-1 (HCC-1[9-74]) (ligand)
chain: GPYHPSECCFTYTTYKIPRQRIMDYYETNSQCSKPGIVFITKRGHSVCTNPSDKWVQDYIKDMKEN
B4: RANTES (ligand)
chain: SPYSSDTTPCCFAYIARPLPRAHIKEYFYTSGKCSNPAVVFVTRKNRQVCANPEKKWVREYINSLEMS
B5: HCC-1[7-74] (ligand)
chain: SRGPYHPSECCFTYTTYKIPRQRIMDYYETNSQCSKPGIVFITKRGHSVCTNPSDKWVQDYIKDMKEN
B6: HCC-1, residues 6-74 (ligand)
chain: SSRGPYHPSECCFTYTTYKIPRQRIMDYYETNSQCSKPGIVFITKRGHSVCTNPSDKWVQDYIKDMKEN
B7: HCC-1[8-74] (ligand)
chain: RGPYHPSECCFTYTTYKIPRQRIMDYYETNSQCSKPGIVFITKRGHSVCTNPSDKWVQDYIKDMKEN
B8: HCC-1[12-74] (protein)
chain: HPSECCFTYTTYKIPRQRIMDYYETNSQCSKPGIVFITKRGHSVCTNPSDKWVQDYIKDMKEN
B9: HCC-1[10-74] (ligand)
chain: PYHPSECCFTYTTYKIPRQRIMDYYETNSQCSKPGIVFITKRGHSVCTNPSDKWVQDYIKDMKEN

*: point of attachment. Nonanoyl = CCCCCCCCC(=O)*

The test has as its target T1, chemokine receptor 1 (CCR1). Nature of the test: competition binding.
One may read the IC50 as the concentration needed to halve the response being measured. High values mean a need for much substance, low ones inhibition by little substance. On to B1, for which the concentration for half-maximal inhibition (IC50) worked out at 5.07 nM. In other words, the single-digit nanomolar range.

Consider B2, for which the 50% inhibitory concentration (IC50) came to 0.0843 nM.

In the case of B3, the IC50 amounted to 0.104 nM.

Molecule B4 yielded an IC50 of 0.166 nM.

Molecule B5 had an IC50 of 4.36 nM.

B6 displayed an IC50 of 6.52 nM. The IC50 values of the last two molecules are within 1.5-fold of each other.

With B7, the IC50 worked out at 2.42 nM.

B8 came in with an IC50 of 50.1 nM. Compared with the last molecule, the IC50 is about 21-fold higher.

B9 came in with an IC50 of 0.182 nM.

For the origin of these results see US20090082262A1 (published 2009).
